Laboratory results taken from US20110039770A1 (PHARMAGAP, published 2011).
Where no end group is shown, it is not given here.

T1: PKC-ε, purified isoform (UniProt Q02156 1-737)
T1 sequence (looked up): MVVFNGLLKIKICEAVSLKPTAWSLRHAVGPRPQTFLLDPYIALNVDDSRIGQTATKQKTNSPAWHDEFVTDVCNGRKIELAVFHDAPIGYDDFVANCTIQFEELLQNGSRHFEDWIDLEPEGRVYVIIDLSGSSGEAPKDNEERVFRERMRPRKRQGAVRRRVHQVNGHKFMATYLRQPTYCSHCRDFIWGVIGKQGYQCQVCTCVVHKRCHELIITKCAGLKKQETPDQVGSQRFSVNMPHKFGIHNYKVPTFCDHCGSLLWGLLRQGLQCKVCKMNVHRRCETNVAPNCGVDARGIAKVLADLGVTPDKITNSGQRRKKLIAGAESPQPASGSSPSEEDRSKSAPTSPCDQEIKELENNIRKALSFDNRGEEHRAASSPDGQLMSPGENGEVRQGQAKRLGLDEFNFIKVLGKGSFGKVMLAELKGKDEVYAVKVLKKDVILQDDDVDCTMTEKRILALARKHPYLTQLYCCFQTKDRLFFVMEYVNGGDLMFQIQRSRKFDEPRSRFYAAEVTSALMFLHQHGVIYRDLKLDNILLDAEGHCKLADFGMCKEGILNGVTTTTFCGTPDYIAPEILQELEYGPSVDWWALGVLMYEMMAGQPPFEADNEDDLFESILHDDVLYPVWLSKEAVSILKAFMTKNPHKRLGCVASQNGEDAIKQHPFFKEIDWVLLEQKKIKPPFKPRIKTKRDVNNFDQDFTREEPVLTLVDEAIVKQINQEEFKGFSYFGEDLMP


What was measured:
PKC-α, purified isoform = PKC-α, purified isoform (UniProt P17252 1-672); experiment: cell-based or functional assay
PKC-ε, purified isoform = biological target: T1, PKC-ε, purified isoform; experiment: cell-based or functional assay
[1] = biological target: PKC-βII, purified isoform (UniProt P05771-2 1-673); experiment: cell-based or functional assay
PKC-βII, purified isoform, sequence (P05771 other isoform, or with tags, fused parts or gaps limits assumed): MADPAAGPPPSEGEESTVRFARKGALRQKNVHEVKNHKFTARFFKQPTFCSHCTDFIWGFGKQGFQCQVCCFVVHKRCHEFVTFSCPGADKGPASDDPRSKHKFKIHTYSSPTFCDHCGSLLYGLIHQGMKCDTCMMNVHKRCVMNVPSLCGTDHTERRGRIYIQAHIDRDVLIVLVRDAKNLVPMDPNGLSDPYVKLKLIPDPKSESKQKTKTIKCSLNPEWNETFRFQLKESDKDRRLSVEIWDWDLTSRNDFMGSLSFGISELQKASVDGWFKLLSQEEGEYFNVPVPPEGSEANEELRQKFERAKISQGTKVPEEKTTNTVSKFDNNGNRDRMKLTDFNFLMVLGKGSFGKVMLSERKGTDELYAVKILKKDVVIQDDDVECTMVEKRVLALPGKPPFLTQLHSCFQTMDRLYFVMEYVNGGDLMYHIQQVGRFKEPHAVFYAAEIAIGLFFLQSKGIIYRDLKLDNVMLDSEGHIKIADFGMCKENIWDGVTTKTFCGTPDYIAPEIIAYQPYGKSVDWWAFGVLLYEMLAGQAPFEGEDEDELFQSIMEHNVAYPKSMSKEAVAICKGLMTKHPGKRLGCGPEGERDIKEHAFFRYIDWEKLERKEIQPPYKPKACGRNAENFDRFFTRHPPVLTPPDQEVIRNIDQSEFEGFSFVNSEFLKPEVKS

PKC-βI, purified isoform [2] = biological target: T2, PKC-βI, purified isoform (UniProt P05771-1 1-671); experiment: cell-based or functional assay
T2 sequence (P05771 whole entry, canonical isoform): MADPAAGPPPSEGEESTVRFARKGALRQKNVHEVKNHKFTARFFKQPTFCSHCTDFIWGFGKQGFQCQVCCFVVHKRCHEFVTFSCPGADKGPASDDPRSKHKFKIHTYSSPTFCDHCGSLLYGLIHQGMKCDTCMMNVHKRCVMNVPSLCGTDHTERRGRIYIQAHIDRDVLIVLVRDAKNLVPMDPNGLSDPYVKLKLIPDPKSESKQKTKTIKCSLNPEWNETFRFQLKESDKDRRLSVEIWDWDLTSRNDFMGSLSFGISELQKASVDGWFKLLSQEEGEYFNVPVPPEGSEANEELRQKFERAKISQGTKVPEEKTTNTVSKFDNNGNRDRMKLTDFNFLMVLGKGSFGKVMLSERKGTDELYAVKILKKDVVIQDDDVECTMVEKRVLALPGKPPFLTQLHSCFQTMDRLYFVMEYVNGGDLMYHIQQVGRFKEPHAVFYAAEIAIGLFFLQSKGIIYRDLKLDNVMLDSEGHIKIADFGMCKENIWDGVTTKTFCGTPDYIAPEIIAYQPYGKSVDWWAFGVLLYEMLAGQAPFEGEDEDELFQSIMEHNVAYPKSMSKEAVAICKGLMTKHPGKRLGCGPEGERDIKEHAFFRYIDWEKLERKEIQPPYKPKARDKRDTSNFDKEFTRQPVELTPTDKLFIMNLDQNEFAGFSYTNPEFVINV

PKC-βI, purified isoform [3] = biological target: T2, PKC-βI, purified isoform; experiment: purified isoform competition ELISA, summary grade

Binder	% Inhibition of PKC activity at 150 µM (PKC-α, purified isoform)	% Inhibition of PKC activity at 300 µM (PKC-α, purified isoform)	% Inhibition of PKC activity at 600 µM (PKC-α, purified isoform)	% Inhibition of PKC activity at 150 µM (PKC-ε, purified isoform)	% Inhibition of PKC activity at 300 µM (PKC-ε, purified isoform)	% Inhibition of PKC activity at 600 µM (PKC-ε, purified isoform)	% Inhibition of PKC activity at 150 µM [1]	% Inhibition of PKC activity at 300 µM [1]	% Inhibition of PKC activity at 600 µM [1]	% Inhibition of PKC activity at 150 µM (PKC-βI, purified isoform [2])	% Inhibition of PKC activity at 300 µM (PKC-βI, purified isoform [2])	% Inhibition of PKC activity at 600 µM (PKC-βI, purified isoform [2])	binding result (PKC-βI, purified isoform [3])
FRRK(adenine PNA)FRL [compound PKI 3]	47%	51%	82%	38%	53%	68%	31%	83%	81%	37%	76%	80%	
ILEDKGGDAQNLIGISI (also called peptide recognition element 8) [PRE 8]													no binding
FRRCFRL [compound PKI 4]	80%	80%	80%	55%	55%	77%	83%	83%	82%	72%	72%	82%	
